The numbers were not newly measured in article PMC7654312, which cites them from elsewhere.

In series [1] the target is Lys210 (UniProt position 210, VVKVAKLGISE).
Series [2] concerns Lys210.

On to “Retro-aldolase RA95.0 (computationally designed) (synthetic construct (design on an indole-3-glycerol phosphate synthase TIM-barrel scaffold))”, for which, in the series with Lys210 [1], the pKa (commonly the pH at which an ionisable group is half protonated) was 8.1.
Regarding “Retro-aldolase RA95.5 (evolved variant of RA95.0) (synthetic construct (design on an indole-3-glycerol phosphate synthase TIM-barrel scaffold); T83K)”, in the series with Lys210 [2], the pKa is 7.6.
